From patent US20120014885A1 (DANISCO US, published 2012)
Ends that are not written are not given here.

Tests used:
BSA [1] = target: T1, BSA (UniProt P02769 25-607); assay: phage ELISA, equivalent amounts of phage, anti-M13-HRP, ABTS, A405 after 30 min (n=3)
Protocol: (§1) Equivalent amounts of phage were evaluated to determine their relative binding affinity to hVEGF₁₆₅. […] Target-bound phage were detected with anti-M13-HRP.

human VEGF165 [2] = target: T2, human VEGF165 (human, UniProt P15692-4 27-191); assay: SPR (BIAcore 3000), VEGF165 coupled to CM5, peptide injected, TNF-alpha reference lane; two state reaction model with conformation change; overall KD of the two state fit
T2 construct: Bought protein; panning target, amine-coupled to CM5 chips for BIAcore, coated on plates; also called hVEGF165; hVEGF
T2 sequence (P15692 other isoform, or with tags, fused parts or gaps limits assumed): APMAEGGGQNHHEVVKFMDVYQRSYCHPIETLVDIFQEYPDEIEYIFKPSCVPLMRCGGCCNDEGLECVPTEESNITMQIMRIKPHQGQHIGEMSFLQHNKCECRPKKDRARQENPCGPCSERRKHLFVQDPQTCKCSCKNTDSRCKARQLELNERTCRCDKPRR
Protocol: (§2) Affinities of the peptides for VEGF were measured using a BIAcore™-3000 surface plasmon resonance system (Biacore). A CM5 sensor chip was conditioned with 50 mM NaOH, 0.1% HCl, 0.1% SDS, and 0.08% H₃PO₄, and activated for covalent coupling of VEGF using N-ethyl-N′-(3-dimethylaminopropyl)-carbodiimide hydrochloride (EDC) and N-hydroxysuccinimide (NHS) according to the supplier's instructions (Biacore). Human VEGF₁₆₅ (Biosource) was diluted to 5 μg/ml in 20 mM sodium acetate, pH 4.8 and injected at a flow rate of 2 μl/min to achieve approximately 1000 to 6000 response units (RU) of coupled protein. TNF-alpha (human TNF-alpha, Biosource, Int., Camarillo, Calif.) was similarly coupled to the CM5 sensor chip to approximately 850 to 3500 RU in the reference lane. A solution of 1 M ethanolamine was injected as a blocking agent. In some experiments, an additional solution of EDC and NHS were injected to improve baseline stability and a solution of 1 M ethanolamine injected as a blocking agent. The reference lane was activated with EDC and NHS and blocked with ethanolamine.

human VEGF165 [3] = target: T2, human VEGF165; assay: SPR (BIAcore 3000), VEGF165 coupled to CM5, peptide injected, TNF-alpha reference lane; two state reaction model with conformation change; first step of the two state fit (kd1)
Protocol: as §2

human VEGF165 [4] = target: T2, human VEGF165; assay: SPR (BIAcore 3000), VEGF165 coupled to CM5, peptide injected, TNF-alpha reference lane; two state reaction model with conformation change; first step of the two state fit (ka1)
Protocol: as §2

human VEGF165 [5] = target: T2, human VEGF165; assay: bound beta-lactamase activity (nitrocefin, mOD/min) on hVEGF165 coated wells after washing
[6] = target: T3, VegF (PeproTech), labeled with biotin (UniProt P15692-4 27-191, limits assumed, biotin label (site not stated)); assay: ECL competition assay (BioVeris): biotinylated VegF on streptavidin beads, competitor ECL labeled Anti-VegF antibody
T3 construct: Captured on streptavidin coated beads in the BioVeris ECL assay; also called biotinylated VegF
T3 sequence (P15692 other isoform, or with tags, fused parts or gaps limits assumed): as above

BSA [7] = target: T1, BSA; assay: phage ELISA, anti-M13-HRP, ABTS, A405
Protocol: as §1

T1 sequence (P02769 25-607 limits assumed): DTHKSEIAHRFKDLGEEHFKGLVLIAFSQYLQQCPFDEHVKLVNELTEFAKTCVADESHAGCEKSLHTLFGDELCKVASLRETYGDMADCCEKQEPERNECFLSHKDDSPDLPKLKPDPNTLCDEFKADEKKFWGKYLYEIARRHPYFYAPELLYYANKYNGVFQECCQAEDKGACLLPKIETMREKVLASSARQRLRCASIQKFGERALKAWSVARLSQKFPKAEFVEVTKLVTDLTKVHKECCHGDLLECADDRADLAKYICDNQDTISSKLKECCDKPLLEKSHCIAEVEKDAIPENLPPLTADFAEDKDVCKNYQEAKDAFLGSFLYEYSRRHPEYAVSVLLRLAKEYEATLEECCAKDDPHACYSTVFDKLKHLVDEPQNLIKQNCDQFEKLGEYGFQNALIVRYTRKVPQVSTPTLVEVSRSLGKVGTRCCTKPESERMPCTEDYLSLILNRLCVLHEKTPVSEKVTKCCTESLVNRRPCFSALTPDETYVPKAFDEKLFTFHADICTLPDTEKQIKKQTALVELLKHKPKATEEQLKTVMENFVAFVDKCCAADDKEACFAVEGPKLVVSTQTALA

NLWPHFW (tested as whole phage) [SEQ ID NO 3]
binding result (BSA [1]): no binding

B1: biotinylated peptide CK37281 (peptide)
peptide: ACYNLYGWTC
modifications: cysteine pairing not given here; also: biotinylated (site not given here)
notes: Synthetic peptide (FMOC chemistry, SynPep)
Kd (human VEGF165 [2]): 1.92 µM | koff (human VEGF165 [3]): 0.0122 s⁻¹ | kon (human VEGF165 [4]): 2840 M⁻¹ s⁻¹

TLWPSYW (tested as whole phage) [SEQ ID NO 7]
binding result (BSA [1]): no binding

B2: SEQ ID NO 1 (peptide)
peptide: YNLYGWT
notes: Clone of the PhD C7C library (NEB): the 7-mer stands between two cysteines on M13 phage; tested as whole phage; also called YNLYGWT
binding result (BSA [1]): no binding

B3: BLA (enzyme)
chain: TPVSEKQLAEVVANTITPLMKAQSVPGMAVAVIYQGKPHYYTFGKADIAANKPVTPQTLFELGSISKTFTGVLGGDAIARGEISLDDAVTRYWPQLTGKQWQGIRMLDLATYTAGGLPLQVPDEVTDNASLLRFYQNWQPQWKPGTTRLYANASIGLFGALAVKPSGMPYEQAMTTRVLKPLKLDHTWINVPKAEEAHYAWGYRDGKAVRVSPGMLDAQAYGVKTNVQDMANWVMANMAPENVADASLKQGIALAQSRYWRIGSMYQGLGWEMLNWPVEANTVVEGSDSKVALAPLPVAEVNPPAPPVKASWVHKTGSTGGFGSYVAFIPEKQIGIVMLANTSYPNPARVEAAYHILEALQHHHHHH
notes: also called pCB04; pCB04 (WT)
binding result (human VEGF165 [5]): no binding (tested: about 40 uM)

B4: 2BBIck81 (designed binder)
chain: DDESSKPCCDQCACTKSNPPQCRCSDMRLNSCHSACKSCACYNLYGWTCFCVDITDFCYEPCKPSEDDKEN
notes: also called free 2BBIck81; 2BBlck81
IC50 (read off the curve) [6]: ~3 µM

SLWPAFW (tested as whole phage) [SEQ ID NO 4]
binding result (BSA [1]): no binding

APWNSHI (tested as whole phage) [SEQ ID NO 5]
binding result (BSA [1]): no binding

APWNLHI (tested as whole phage) [SEQ ID NO 6]
binding result (BSA [7]): no binding

TLWPTFW (tested as whole phage) [SEQ ID NO 2]
binding result (BSA [1]): no binding

HLAPSAV (tested as whole phage) [SEQ ID NO 13]
binding result (BSA [1]): no binding
